# Laboratory results taken from article PMC5938345.
# Tests used:
# [1] = target: gp350-ECDFL-Fc_(mIgG2a) (Epstein-Barr virus (strain M81) | mouse) (UniProt P03200); assay: AUC; sedimentation velocity, 20°C, PBS, 35,000 rpm, samples diluted to 1 OD at 280 nm; c(s) and c(M) in Sedfit
# [2] = target: gp350-ECDFL-Fc_(mIgG2a) (Epstein-Barr virus (strain M81) | mouse) (UniProt P03200); assay: SDS-PAGE under reducing and non-reducing conditions with Western blot; 15 µl supernatants of passage 1 baculovirus stocks, with and without β-ME, 10% SDS-PAGE; detected by anti-His or anti-mouse Fc antibody
# [3] = target: gp350-ECD123-Fc_(mIgG2a) (Epstein-Barr virus (strain M81) | mouse) (UniProt P03200); assay: AUC; sedimentation velocity, 20°C, PBS, 35,000 rpm, samples diluted to 1 OD at 280 nm; c(s) and c(M) in Sedfit
# [4] = target: gp350-ECD123-Fc_(mIgG2a) (Epstein-Barr virus (strain M81) | mouse) (UniProt P03200); assay: SDS-PAGE under reducing and non-reducing conditions with Western blot; 15 µl supernatants of passage 1 baculovirus stocks, with and without β-ME, 10% SDS-PAGE; detected by anti-His or anti-mouse Fc antibody
# [5] = target: gp350-ECD123-6His (Epstein-Barr virus (strain M81)) (UniProt P03200); assay: SPR; Biacore T200; the three recombinant gp350s immobilised on CM5 chip at pH 5.5 with low RU to avoid avidity; MBP-hCR2 SCR1-2 injected at 30 µl/min; regeneration with 10 mM glycine-HCl pH 1.5; 1:1 fit
# [6] = target: gp350-ECDFL-Fc_(mIgG2a) (Epstein-Barr virus (strain M81) | mouse) (UniProt P03200); assay: as above
# [7] = target: gp350-ECD123-Fc_(mIgG2a) (Epstein-Barr virus (strain M81) | mouse) (UniProt P03200); assay: as above
substance,measurement,setting,value
gp350-ECDFL-Fc_(mIgG2a) (from UniProt P03200-1 1-803) (Fc fusion),stoichiometry N,[1],2
same,stoichiometry N,[2],2
gp350-ECD123-Fc_(mIgG2a) (from UniProt P03200-1 1-425) (Fc fusion),stoichiometry N,[3],2
same,stoichiometry N,[4],2
MBP-hCR2 SCR1-2 (domain or fragment),Kd,[5],294 nM
same,koff,[5],0.00141 s⁻¹
same,kon,[5],4780 M⁻¹ s⁻¹
same,Kd,[6],68.5 nM
same,koff,[6],0.0012 s⁻¹
same,kon,[6],17600 M⁻¹ s⁻¹
same,Kd,[7],94.6 nM
same,koff,[7],0.00383 s⁻¹
same,kon,[7],40500 M⁻¹ s⁻¹
